These results are taken from US20140256916A1 (Sanofi, published 2014).

One may read the EC50 (read off the curve) as the concentration at which the effect is half-maximal. A higher EC50 (read off the curve) goes with a less potent agent.

The target of experiment [1] is T1, CA6, tumor-associated MUC1-sialoglycotope (human, UniProt P15941 24-1255, carries the CA6 sialoglycotope (sialylated glycan epitope); sites not stated).
T1 construct: whole, on cells; In the assays it is presented on WISH cells (CA6+); A2780 cells are CA6 negative; also called CA6 antigen; human CA6 tumor antigen
The experiment in a line: flow cytometry on WISH (CA6+) cells (method from Example 4).
Target sequence in this assay (P15941 24-1255): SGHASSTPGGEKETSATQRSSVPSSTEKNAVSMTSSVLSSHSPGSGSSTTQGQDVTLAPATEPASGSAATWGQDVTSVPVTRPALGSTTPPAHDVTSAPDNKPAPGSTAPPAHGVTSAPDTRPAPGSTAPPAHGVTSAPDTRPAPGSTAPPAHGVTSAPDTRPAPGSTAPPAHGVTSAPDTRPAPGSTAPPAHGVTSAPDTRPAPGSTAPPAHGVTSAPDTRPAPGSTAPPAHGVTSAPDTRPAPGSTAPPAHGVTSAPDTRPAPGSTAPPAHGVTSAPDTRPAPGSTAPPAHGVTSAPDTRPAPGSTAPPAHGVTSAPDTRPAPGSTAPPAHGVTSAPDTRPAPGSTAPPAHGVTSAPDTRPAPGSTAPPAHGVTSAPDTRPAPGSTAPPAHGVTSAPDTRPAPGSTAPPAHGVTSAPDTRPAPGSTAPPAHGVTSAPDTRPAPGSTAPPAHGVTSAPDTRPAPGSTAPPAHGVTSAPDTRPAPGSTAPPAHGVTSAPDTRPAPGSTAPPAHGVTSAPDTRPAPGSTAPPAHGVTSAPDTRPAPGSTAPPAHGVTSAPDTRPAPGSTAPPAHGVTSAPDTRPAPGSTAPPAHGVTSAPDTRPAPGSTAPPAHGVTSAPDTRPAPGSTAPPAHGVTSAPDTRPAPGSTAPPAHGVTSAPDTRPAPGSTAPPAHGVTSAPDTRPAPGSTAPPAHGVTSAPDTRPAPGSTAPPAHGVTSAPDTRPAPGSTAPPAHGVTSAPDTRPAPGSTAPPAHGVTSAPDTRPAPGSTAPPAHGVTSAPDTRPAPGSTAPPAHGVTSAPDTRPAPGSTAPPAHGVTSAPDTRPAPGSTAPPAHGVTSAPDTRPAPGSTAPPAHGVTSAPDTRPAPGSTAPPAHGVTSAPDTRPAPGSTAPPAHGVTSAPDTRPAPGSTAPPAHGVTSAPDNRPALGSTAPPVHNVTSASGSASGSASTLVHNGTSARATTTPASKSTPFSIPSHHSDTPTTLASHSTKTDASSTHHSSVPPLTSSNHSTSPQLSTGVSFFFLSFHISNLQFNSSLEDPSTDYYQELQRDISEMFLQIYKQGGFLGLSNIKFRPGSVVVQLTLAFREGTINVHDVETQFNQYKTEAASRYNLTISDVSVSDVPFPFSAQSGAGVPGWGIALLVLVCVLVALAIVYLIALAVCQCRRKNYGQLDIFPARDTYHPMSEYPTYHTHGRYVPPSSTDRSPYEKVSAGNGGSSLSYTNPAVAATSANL

For experiment [2], the target named is T2, CA6, tumor-associated MUC1-sialoglycotope (human, UniProt P15941 24-1255, carries the CA6 sialoglycotope (sialylated glycan epitope); sites not stated). Briefly: flow cytometry (FACS) on WISH cells (CA6+). (In general: Flow cytometry measures light scatter and fluorescence of single cells or particles in a stream.)
Target sequence in this assay (P15941 24-1097, chain 1 of 2): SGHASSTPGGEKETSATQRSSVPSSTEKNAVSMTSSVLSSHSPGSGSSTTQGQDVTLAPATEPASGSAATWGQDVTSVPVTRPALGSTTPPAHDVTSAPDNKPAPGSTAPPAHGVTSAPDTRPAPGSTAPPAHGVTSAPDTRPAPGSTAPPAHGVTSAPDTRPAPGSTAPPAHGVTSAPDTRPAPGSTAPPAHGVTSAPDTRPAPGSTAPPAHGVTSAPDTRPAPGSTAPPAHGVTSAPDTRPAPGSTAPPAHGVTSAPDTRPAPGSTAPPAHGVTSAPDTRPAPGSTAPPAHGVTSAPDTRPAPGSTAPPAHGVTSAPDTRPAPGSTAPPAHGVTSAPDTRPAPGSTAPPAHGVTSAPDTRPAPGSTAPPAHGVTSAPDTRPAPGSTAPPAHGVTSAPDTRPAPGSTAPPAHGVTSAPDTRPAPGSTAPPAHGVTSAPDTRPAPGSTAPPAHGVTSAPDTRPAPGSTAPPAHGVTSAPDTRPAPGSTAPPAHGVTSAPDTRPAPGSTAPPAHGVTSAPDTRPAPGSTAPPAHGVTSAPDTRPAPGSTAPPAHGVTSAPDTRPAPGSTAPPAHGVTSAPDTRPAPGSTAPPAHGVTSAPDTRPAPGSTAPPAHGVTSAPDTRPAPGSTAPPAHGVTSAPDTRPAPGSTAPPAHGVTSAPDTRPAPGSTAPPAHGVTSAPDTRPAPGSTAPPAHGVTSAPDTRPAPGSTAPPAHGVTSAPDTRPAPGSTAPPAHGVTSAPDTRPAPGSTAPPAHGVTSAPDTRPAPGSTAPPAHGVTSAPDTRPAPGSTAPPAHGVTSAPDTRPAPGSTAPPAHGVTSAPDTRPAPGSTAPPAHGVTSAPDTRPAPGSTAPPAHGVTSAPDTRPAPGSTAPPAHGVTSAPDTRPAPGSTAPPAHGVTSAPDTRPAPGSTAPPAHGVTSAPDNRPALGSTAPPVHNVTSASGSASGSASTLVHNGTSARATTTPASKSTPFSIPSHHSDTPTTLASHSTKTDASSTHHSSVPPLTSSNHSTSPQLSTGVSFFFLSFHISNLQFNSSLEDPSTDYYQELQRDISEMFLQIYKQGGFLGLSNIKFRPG
Target sequence in this assay (P15941 1098-1255, chain 2 of 2): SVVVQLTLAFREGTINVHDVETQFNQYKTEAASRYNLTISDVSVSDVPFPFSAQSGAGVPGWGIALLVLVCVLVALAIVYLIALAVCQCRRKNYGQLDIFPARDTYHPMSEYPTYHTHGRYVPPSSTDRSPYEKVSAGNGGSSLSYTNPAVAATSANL
The target of experiment [3] is T2, CA6, tumor-associated …. The experiment in a line: flow cytometry (FACS) on WISH cells (CA6+). This is another data set of the same source.
T2 sequence (P15941 24-1097, chain 1 of 2): as the sequence (P15941 24-1097, chain 1 of 2) above
T2 sequence (P15941 1098-1255, chain 2 of 2): as the sequence (P15941 1098-1255, chain 2 of 2) above
Experiment [4] deals with T2, CA6, tumor-associated …. Briefly: flow cytometry (FACS) on WISH cells (CA6+). This is another data set of the same source.
Experiment [5] has as its target T2, CA6, tumor-associated …. Briefly: method not given; presumably flow cytometry on WISH (CA6+) cells as for the B-Fabs.
The target in experiment [6] is T1, CA6, tumor-associated …. The experiment in a line: FACS binding assay (Free), Kd app.
T1 sequence (P15941 24-1255): as the sequence (P15941 24-1255) above
Experiment [7] addresses T1, CA6, tumor-associated …. Briefly: FACS binding assay (DOTA Conjugate), Kd app.
Experiment [8] addresses T1, CA6, tumor-associated …. The experiment in a line: flow cytometry (FACS) on WISH cells (CA6+), normalized fluorescence, without DOTA.
Experiment [9] addresses T1, CA6, tumor-associated …. Briefly: flow cytometry (FACS) on WISH cells (CA6+). As to the method: The B-Fab 1153 is a DS6-based engineered antibody-like binding protein containing a both L1 and L2 linkers as (G45)₂ and not containing a C-terminal 6x-His tag. Since this protein was lacking a His tag the protein was purified by […], Kappa-select and SEC. The in vitro binding solution was prepared at 1.6 mg/ml in PBS and binding affinity was characterized using flow cytometry in the WISH CA6+ cell line (FIG. 3C and FIG. 3D).

The target of experiment [10] is T1, CA6, tumor-associated …. The experiment in a line: FACS binding assay (Free), Kd app; unconjugated (Free) B-Fab, not DOTA conjugate.
Experiment [11] has as its target T1, CA6, tumor-associated …. Briefly: flow cytometry (FACS) on WISH cells (CA6+), normalized fluorescence, with DOTA.

B1: B-Fab 1152 (Fab)
light: EIVLTQSPATMSASPGERVTITCSAHSSVSFMHWFQQKPGTSPKLWIYSTSSLASGVPARFGGSGSGTSYSLTISSMEAEDAATYYCQQRSSFPLTFGAGTKLELKGGGGSEIVLTQSPATMSASPGERVTITCSAHSSVSFMHWFQQKPGTSPKLWIYSTSSLASGVPARFGGSGSGTSYSLTISSMEAEDAATYYCQQRSSFPLTFGAGTKLELKRTVAAPSVFIFPPSDEQLKSGTASVVCLLNNFYPREAKVQWKVDNALQSGNSQESVTEQDSKDSTYSLSSTLTLSKADYEKHKVYACEVTHQGLSSPVTKSFNRGEC
heavy: EAQLVQSGAEVVKPGASVKMSCKASGYTFTSYNMHWVKQTPGQGLEWIGYIYPGNGATNYNQKFQGKATLTADPSSSTAYMQISSLTSEDSAVYFCARGDSVPFAYWGQGTLVTVSAGGGGSEAQLVQSGAEVVKPGASVKMSCKASGYTFTSYNMHWVKQTPGQGLEWIGYIYPGNGATNYNQKFQGKATLTADPSSSTAYMQISSLTSEDSAVYFCARGDSVPFAYWGQGTLVTVSAASTKGPSVFPLAPSSKSTSGGTAALGCLVKDYFPEPVTVSWNSGALTSGVHTFPAVLQSSGLYSLSSVVTVPSSSLGTQTYICNVNHKPSNTKVDKKVEPKSCDKTHT
notes: also called B-Fab G4S linker and C-terminal 6x-His tag; B-Fab DS6 based engineered antibody with GGGGS (G4S) linker and C-terminal 6x-His tag
Molecule B1 had a Kd in experiment [1] of 88 nM.

B2: Control DS6 monoclonal antibody (antibody, V domains shown)
VH: EAQLVQSGAEVVKPGASVKMSCKASGYTFTSYNMHWVKQTPGQGLEWIGYIYPGNGATNYNQKFQGKATLTADPSSSTAYMQISSLTSEDSAVYFCARGDSVPFAYWGQGTLVTVSA
VL: EIVLTQSPATMSASPGERVTITCSAHSSVSFMHWFQQKPGTSPKLWIYSTSSLASGVPARFGGSGSGTSYSLTISSMEAEDAATYYCQQRSSFPLTFGAGTKLELK
In the case of B2, the “EC50 (read off the curve)” value in experiment [2], in experiment [3] and in experiment [4] was roughly 2 nM in each case. Also, the Kd in experiment [5] was 2 nM.

B3: anti-CA6 diabody of SEQ ID NO: 12 fused to a tag of SEQ ID NO: 14 (other)
chain: EIVLTQSPATMSASPGERVTITCSAHSSVSFMHWFQQKPGTSPKLWIYSTSSLASGVPARFGGSGSGTSYSLTISSMEAEDAATYYCQQRSSFPLTFGAGTKLELKGGGSGGGGEAQLVQSGAEVVKPGASVKMSCKASGYTFTSYNMHWVKQTPGQGLEWIGYIYPGNGATNYNQKFQGKATLTADPSSSTAYMQISSLTSEDSAVYFCARGDSVPFAYWGQGTLVTVSAGGCGGHHHHHH
B3 yielded a Kd in experiment [6] of 10 nM.

B4: DOTA conjugate of the anti-CA6 diabody (SEQ ID NO: 12 fused to SEQ ID NO: 14) (other)
chain: B3 chain
modifications: DOTA chelator conjugated, sites not stated
notes: Homodimeric diabody conjugated to DOTA; also called Diabody (DOTA Conjugate)
Regarding B4, in experiment [7], the Kd worked out at 7.5 nM.

B5: DS6 B-Fab antibody-like binding protein (variant not named) (Fab)
light: EIVLTQSPATMSASPGERVTITCSAHSSVSFMHWFQQKPGTSPKLWIYSTSSLASGVPARFGGSGSGTSYSLTISSMEAEDAATYYCQQRSSFPLTFGAGTKLELKGGGGSGGGGSEIVLTQSPATMSASPGERVTITCSAHSSVSFMHWFQQKPGTSPKLWIYSTSSLASGVPARFGGSGSGTSYSLTISSMEAEDAATYYCQQRSSFPLTFGAGTKLELKRTVAAPSVFIFPPSDEQLKSGTASVVCLLNNFYPREAKVQWKVDNALQSGNSQESVTEQDSKDSTYSLSSTLTLSKADYEKHKVYACEVTHQGLSSPVTKSFNRGEC
heavy: EAQLVQSGAEVVKPGASVKMSCKASGYTFTSYNMHWVKQTPGQGLEWIGYIYPGNGATNYNQKFQGKATLTADPSSSTAYMQISSLTSEDSAVYFCARGDSVPFAYWGQGTLVTVSAGGGGSGGGGSEAQLVQSGAEVVKPGASVKMSCKASGYTFTSYNMHWVKQTPGQGLEWIGYIYPGNGATNYNQKFQGKATLTADPSSSTAYMQISSLTSEDSAVYFCARGDSVPFAYWGQGTLVTVSAASTKGPSVFPLAPSSKSTSGGTAALGCLVKDYFPEPVTVSWNSGALTSGVHTFPAVLQSSGLYSLSSVVTVPSSSLGTQTYICNVNHKPSNTKVDKKVEPKSCDKTHT
notes: also called B-Fab DS6 based engineered antibody
Turning to B5, in experiment [8], the “EC50 (read off the curve)” value is roughly 2 nM and the Kd was 2.2 nM.

B6: B-Fab 1153 (Fab)
light: B5 light
heavy: B5 heavy
notes: also called B-Fab (G4S)2 linker; B-Fab (G4S)2 linker without C-terminal 6xHis tag
Consider B6, for which the “EC50 (read off the curve)” value in experiment [9] is roughly 2 nM. The Kd in experiment [1] amounted to 2.3 nM; in experiment [10], 4 nM.

B7: B-Fab 1151 (Fab)
light: B5 light
heavy: B5 heavy
notes: It also carries a C-terminal 6x-His tag; also called B-Fab (G4S)2 linker and C-terminal 6x-His tag
On to B7, for which, in experiment [1], the Kd amounted to 3.4 nM.

B8: DOTA conjugate of B-Fab 1153 (Fab)
light: B5 light
heavy: B5 heavy
modifications: DOTA chelator conjugated, sites not stated (1.5-2.5 DOTA/fragment)
notes: also called B-Fab (DOTA Conjugate)
Regarding B8, the Kd in experiment [7] worked out at 7.4 nM.

B9: DOTA-DS6 conjugated antibody (B-Fab with DOTA, variant not named) (Fab)
light: B5 light
heavy: B5 heavy
modifications: DOTA chelator conjugated, sites not stated
In the case of B9, in [11], the “EC50 (read off the curve)” value was roughly 6 nM and the Kd was found to be 6.6 nM.
